Data: paper PMC9210283, “DNA cytosine methylation at the lexA promoter of Escherichia coli is stationary phase specific”

Columns and labels:
LexA [1] = molecular target: T1, LexA (Escherichia coli, UniProt P0A7C2 1-202); assay: EMSA; concentration as LexA dimer; Hill slope 1.1; 10 mM MgCl2; EMSA: 70 mM Tris-HCl pH 7.5, 2 mM PIPES, 180 mM NaCl, 10 mM MgCl2, 1 ug/ml salmon sperm DNA, 100 ug/ml BSA, 5% glycerol, 0.006% bromophenol blue, 0.1 nM probe; settings: protein: recombinant; chain copies: 2; label: 32P (5' on strand 1); blunt
T1 sequence (P0A7C2 whole entry): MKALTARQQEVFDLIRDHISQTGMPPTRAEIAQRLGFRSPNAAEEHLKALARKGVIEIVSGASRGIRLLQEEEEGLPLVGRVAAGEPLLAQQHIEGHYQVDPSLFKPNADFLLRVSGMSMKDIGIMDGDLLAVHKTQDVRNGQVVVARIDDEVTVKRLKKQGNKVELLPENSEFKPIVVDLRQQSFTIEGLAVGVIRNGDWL

LexA [2] = molecular target: T1, LexA; assay: EMSA; concentration as LexA dimer; Hill slope 1.2; 10 mM MgCl2; EMSA: 70 mM Tris-HCl pH 7.5, 2 mM PIPES, 180 mM NaCl, 10 mM MgCl2, 1 ug/ml salmon sperm DNA, 100 ug/ml BSA, 5% glycerol, 0.006% bromophenol blue, 0.1 nM probe; settings: protein: recombinant; chain copies: 2; label: 32P (5' on strand 1); blunt

Binder	Kd (LexA [1]) [nM]	Kd (LexA [2]) [nM]
lexAop 5mC/5mC (mC16 F / mC3 R) (dsDNA, 5-methyl-dC at position 28 of strand 1 and position 15 of strand 2) DNA 1: AATGCCTGCGGAAACTGTATATACACCCAGGGTCAATTCTGGCT DNA 2: AGCCAGAATTGACCCTGGGTGTATATACAGTTTCCGCAGGCATT	14	
lexAop C/C (nonmethylated) (dsDNA) DNA 1: AATGCCTGCGGAAACTGTATATACACCCAGGGTCAATTCTGGCT DNA 2: AGCCAGAATTGACCCTGGGTGTATATACAGTTTCCGCAGGCATT		15
